In patent US20220281997A1 (NANJING GENSCRIPT BIOTECH, published 2022):

Tests used:
[1] = molecular target: T1, His-tag camel-derived nanobody AS718 VHH-His (camel-derived); experiment: indirect ELISA, AS718 VHH-His coated, hybridoma supernatant
T1 construct: Immunogen; recombinantly expressed with a C-terminal His tag; also called immunogen AS718; immunogen AS718 VHH-His; not shown: C-terminal His tag
Protocol: The rabbit spleen was extracted and homogenized to produce a single-cell suspension, and a single-cell suspension of myeloma cells was prepared at the same time. 1.0×10⁸ splenocytes were fused with 1.2×10⁵ myeloma cells by electrofusion; the fused cells were resuspended in 100 ml of DMEM/10% FBS culture medium containing hybridoma selective agents, thymidine, hypoxanthine and aminopterin, and transferred to a 150×96-well plate in a volume of 100 μl with a pipette; and the plate was incubated at 37° C. in 6% CO₂. After 9 days of incubation, the indirect ELISA was used to evaluate the binding ability of the antibody in the supernatant to VHH-His, indicating the presence of the antibody to VHH-His.
The ELISA plate was coated with 100 μl/well of 0.5 μg/ml VHH-His or His protein in PBS at 4° C. overnight; the plate was washed with PBS-T (0.05% Tween20) and blocked with 200 μl/well of PBST containing 1% BSA at 37° C. for 0.5 hours; the blocking solution was aspirated and discarded, and 100 μl of hybridoma cell culture supernatant was added to each well and then incubated at room temperature for 1 hour; after the incubation, the supernatant was discarded, and the plate was washed three times with PBST and incubated with 100 μl/well of goat anti-rabbit IgG conjugated with horseradish peroxidase (GenScript Goat Anti-Rabbit IgG Antibody (H&L) [HRP], pAb; CAT #: A00098) at 37° C. for 0.5 hours; the plate was washed five times with PBST, and then a TMB color developing solution was added; and the plate was incubated in the dark at room temperature for 15 minutes. The reaction was stopped by adding 50 μl of 1 M HCl stop solution. The plate was read at 450 nm using a microplate reader. In FIG. 3, by the mode of indirect ELISA, immunogen AS718 VHH-His was used to coat the ELISA detection plate, and the titers of the supernatant stock solutions of 15 parent clones were detected by OD450 reading, and the cross-reactions thereof with the His-tag protein were detected at the same time to exclude non-specific combinations. In the experiment, the positive serum was used as a positive control for immunogen AS718 VHH-His, and the Anti-His antibody was used as a positive control for detection target His-tag protein in the reverse screening. The detection value greater than 0.5 was determined to be positive, and the detection value less than 0.2 was determined to be negative.

[2] = molecular target: T2, AS673 VHH (camel-derived); experiment: indirect ELISA, VHH coated
T2 construct: One of the 10 different camel-derived nanobodies; not shown: His tag (VHH-His)
Protocol: (§1) The ELISA plate was coated with 10 different VHHs at […] in 100 μl/well of PBS at 4° C. overnight, respectively; the plate was washed with PBS-T (0.05% Tween) and blocked with 200 μl/well of PBST containing 1% BSA at 37° C. for 0.5 hours; the blocking solution was aspirated and discarded, and 100 μl of 1 μg/ml purified antibodies were added to the first well, diluted in a 3-fold gradient for a total of 11 test concentration gradients and incubated at room temperature for 1 hour; the plate was washed three times with PBST and incubated with 100 μl/well of goat anti-rabbit IgG conjugated with horseradish peroxidase (GenScript Goat Anti-Rabbit IgG Antibody (H&L) [HRP], pAb; CAT #: A00098) at 37° C. for 0.5 hours; the plate was washed five times with PBST, and then a TMB color developing solution was added; and the plate was incubated in the dark at room temperature for 15 minutes. The reaction was stopped by adding 50 μl of 1 M HCl stop solution. The plate was read at 450 nm using a microplate reader; and the binding abilities of 15 clones to VHH-His were obtained (as shown in FIGS. 6a and 6b). […] On one hand, the affinities of the antibody of the same camel-derived nanobody to different camel-derived nanobodies were different; on the other hand, the affinities of different antibodies of camel-derived nanobodies to the same camel-derived nanobody were different. However, on the whole, all the 15 purified antibodies can be recognized with 10 different camel-derived nanobodies.

[3] = molecular target: T3, AS154 VHH (camel-derived); experiment: indirect ELISA, VHH coated
T3 construct: One of the 10 different camel-derived nanobodies; not shown: His tag (VHH-His)
Protocol: as §1

[4] = molecular target: T4, AS325 VHH (camel-derived); experiment: indirect ELISA, VHH coated
T4 construct: One of the 10 different camel-derived nanobodies; not shown: His tag (VHH-His)
Protocol: as §1

[5] = molecular target: T5, AS519 VHH (camel-derived); experiment: indirect ELISA, VHH coated
T5 construct: One of the 10 different camel-derived nanobodies; not shown: His tag (VHH-His)
Protocol: as §1

[6] = molecular target: T6, AS588 VHH (camel-derived); experiment: indirect ELISA, VHH coated
T6 construct: One of the 10 different camel-derived nanobodies; not shown: His tag (VHH-His)
Protocol: as §1

[7] = molecular target: T7, AS675 VHH (camel-derived); experiment: indirect ELISA, VHH coated
T7 construct: One of the 10 different camel-derived nanobodies; not shown: His tag (VHH-His)
Protocol: as §1

[8] = molecular target: T8, AS587 VHH (camel-derived); experiment: indirect ELISA, VHH coated
T8 construct: One of the 10 different camel-derived nanobodies; not shown: His tag (VHH-His)
Protocol: as §1

[9] = molecular target: T9, AS988 VHH (camel-derived); experiment: indirect ELISA, VHH coated
T9 construct: One of the 10 different camel-derived nanobodies; not shown: His tag (VHH-His)
Protocol: as §1

[10] = molecular target: T10, AS200 VHH (camel-derived); experiment: indirect ELISA, VHH coated
T10 construct: One of the 10 different camel-derived nanobodies; not shown: His tag (VHH-His)
Protocol: as §1

[11] = molecular target: T11, AS656 VHH (camel-derived); experiment: indirect ELISA, VHH coated
T11 construct: One of the 10 different camel-derived nanobodies; not shown: His tag (VHH-His)
Protocol: as §1

T7 sequence (VHH, as listed by the source): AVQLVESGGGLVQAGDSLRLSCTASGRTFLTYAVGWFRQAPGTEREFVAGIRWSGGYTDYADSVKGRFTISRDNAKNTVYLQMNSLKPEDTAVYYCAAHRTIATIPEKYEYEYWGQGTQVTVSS
T11 sequence (VHH, as listed by the source): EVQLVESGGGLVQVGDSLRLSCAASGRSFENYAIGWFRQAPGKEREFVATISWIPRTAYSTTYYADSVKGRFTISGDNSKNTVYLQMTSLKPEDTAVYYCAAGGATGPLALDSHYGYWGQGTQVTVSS
T10 sequence (VHH, as listed by the source): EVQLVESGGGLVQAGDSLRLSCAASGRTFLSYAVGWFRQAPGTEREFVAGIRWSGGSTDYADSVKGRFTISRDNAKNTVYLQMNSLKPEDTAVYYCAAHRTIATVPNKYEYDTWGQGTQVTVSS
T3 sequence (VHH, as listed by the source): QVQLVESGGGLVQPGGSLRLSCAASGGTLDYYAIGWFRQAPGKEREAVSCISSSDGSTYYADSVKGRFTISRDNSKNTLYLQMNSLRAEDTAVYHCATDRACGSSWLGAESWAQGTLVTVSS
T9 sequence (VHH, as listed by the source): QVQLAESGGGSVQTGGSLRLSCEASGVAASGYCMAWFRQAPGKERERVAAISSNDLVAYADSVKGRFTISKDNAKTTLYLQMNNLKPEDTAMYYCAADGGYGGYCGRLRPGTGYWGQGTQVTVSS
T5 sequence (VHH, as listed by the source): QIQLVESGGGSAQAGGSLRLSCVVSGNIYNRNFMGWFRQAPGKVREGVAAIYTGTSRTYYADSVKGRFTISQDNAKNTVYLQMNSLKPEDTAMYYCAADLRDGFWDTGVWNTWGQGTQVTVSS
T8 sequence (VHH, as listed by the source): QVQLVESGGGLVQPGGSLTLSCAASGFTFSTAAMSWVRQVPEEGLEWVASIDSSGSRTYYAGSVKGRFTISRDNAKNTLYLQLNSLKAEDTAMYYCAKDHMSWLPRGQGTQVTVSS
T4 sequence (VHH, as listed by the source): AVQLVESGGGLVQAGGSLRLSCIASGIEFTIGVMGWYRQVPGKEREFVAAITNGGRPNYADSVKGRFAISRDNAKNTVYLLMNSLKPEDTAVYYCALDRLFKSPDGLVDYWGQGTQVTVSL
T1 sequence (VHH, as listed by the source): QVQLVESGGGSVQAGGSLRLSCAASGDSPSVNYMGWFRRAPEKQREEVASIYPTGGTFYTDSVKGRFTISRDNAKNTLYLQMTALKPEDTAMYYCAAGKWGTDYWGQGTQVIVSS
T6 sequence (VHH, as listed by the source): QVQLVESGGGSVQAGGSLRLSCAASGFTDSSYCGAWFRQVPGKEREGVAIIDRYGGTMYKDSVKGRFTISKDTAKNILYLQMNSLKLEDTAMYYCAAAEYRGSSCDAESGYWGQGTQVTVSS
T2 sequence (VHH, as listed by the source): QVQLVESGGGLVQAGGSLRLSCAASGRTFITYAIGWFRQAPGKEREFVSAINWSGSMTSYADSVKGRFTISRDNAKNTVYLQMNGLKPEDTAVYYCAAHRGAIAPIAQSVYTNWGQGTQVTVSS

Row | Binder | binding result [1] | binding result [2] | binding result [3] | binding result [4] | binding result [5] | binding result [6] | binding result [7] | binding result [8] | binding result [9] | binding result [10] | binding result [11]
1 | R166.G2 (antibody, V domains shown, Rabbit monoclonal; also called clone R166.G2) VH: QSLEESGGRLVKPDETLTITCTVSGIDLSSDAMSWVRQAPGKGLEWIGLINRYGNTYYASWAKGRFTISKTSTTVDLKVTSLTTEDTATYFCARYGTDSDFYFLDLWGQGTLVTVSS VL: DIVMTQTPASVSEPVGGTVTIKCQASQSIYSYLSWYQQKPGQRPKLLIYKASKLVSGVPSRFRGSGSGTEFTLTISDLECADAASYYCQSDWLISSNGNTFGGGTEVVVTG | binds | binds | binds | binds | binds | binds | binds | binds | binds | binds | binds
2 | R166.G8 (antibody, V domains shown, Rabbit monoclonal; also called clone R166.G8) VH: LEQSGGGAEGGLVKPGGSLELCCKASGFSLSNIYWICWVRQAPGTGLEWIGCINSGSNSYTYYANWVDGRFTLSRDIDQSTGCLQLNSLTAADTAMYYCARDRDAADTSDWSLNFWGQGTLVTVSS VL: QVLTQTPSSVSAAVGGTVTISCQSSDSVNNDNWLAWYQQKPGQPPKLLIYQASKLASGVPSRFSGSGSGTQFTLTISGVQCDDAANYYCQGTGYSSTWYVAFGGGTEVVVKG | binds | binds | binds | binds | binds | binds | binds | binds | binds | binds | binds
3 | R166.H8 (antibody, V domains shown, Rabbit monoclonal; also called clone R166.H8) VH: QSVEESGGRLVTPGTPLTLTCTVSGFSLSSFAMSWVRQAPGKGLEWIGIIYATGGTRDYATWAAGRFTISKTSTTVGLKMTSPTTEDTATYFCARDRSPDYSAAFNLWGQGTLVTVSS VL: IVMTQTPSSKSVPVGDTVTINCQASESVYSNNHLAWFQQKPGQPPKLLIYSASTLESGVPSRFKGSGSGTQFTLTISGVQCDDAATYYCAGYKSSDTDGTSFGGGTEVVVKG | binds | binds | binds | binds | binds | binds | binds | binds | binds | binds | binds
4 | R166.E7 (antibody, V domains shown, Rabbit monoclonal; also called clone R166.E7) VH: QSVEESGGRLVTPGTPLTLTCTVSGFSLSSFAMSWVRQAPGKGLEWIGIIYTGGTRDYATWAKGRFTISKTSTTVDLKMTSPTTEDTATYFCARDRSPDYSAAFNLWGQGTLVTVSS VL: IVMTQTPSSKSVPVGDTVTINCQASESVYSNNHLAWFQQKPGQPPKLLIYSASTLESGVPSRFKGSGSGTQFTLTISGVQCDDAATYYCAGYKSSDTDGTSFGGGTEVVVKG | binds | binds | binds | binds | binds | binds | binds | binds | binds | binds | binds
5 | R166.G10 (antibody, V domains shown, Rabbit monoclonal; also called clone R166.G10) VH: QSVEESGGRLVTPGTPLTLTCTVSGFSLSSSAVSWVRQAPGKGLEYIGIIGSGGSTYYASWVNGRFTISKTSTTVDLKMTSLTAADTATYFCARYGGNSGGYDSFNLWGQGTLVTVSS VL: DVVMTQTPASVSEPVGGTVTIKCQASQSIYSHLSWYQQKPGQPPKLLIHGASTLASGASSRFKASGSGTEFTLTISDLECADAATYYCQCTAGTSIYGNAFGGGTEVVVRG | binds | binds | binds | binds | binds | binds | binds | binds | binds | binds | binds

The next lines start with the values.

Row | binding result [1] | binding result [2] | binding result [3] | binding result [4] | binding result [5] | binding result [6] | binding result [7] | binding result [8] | binding result [9] | binding result [10] | binding result [11] | Binder
6 | binds | binds | binds | binds | binds | binds | binds | binds | binds | binds | binds | R166.D1 (antibody, V domains shown, Rabbit monoclonal; also called clone R166.D1) VH: QSVEESGGRLVKPDESLTLTCTVSGFSLSNYDMIWVRQAPGKGLEWIGVIYPTGTTYYANWVKGRFTISKTSTTVGLLITSPTTEDTATYFCARKPILYVDSSGWYIDLWGQGTLVTVSS VL: AYDMTQTPSSVSAAVGGTVSIKCQASENINNYLSWYQQKPGQPPKLLIYQASRLASAVPSRFKGSGSGTQFTLTIDDLECADAATYYCQQGHSVSNDVGNVFGGGTEVVVKG
7 | binds | binds | binds | binds | binds | binds | binds | binds | binds | binds | binds | R166.G3 (antibody, V domains shown, Rabbit monoclonal; also called clone R166.G3) VH: QSVEESGGRLVTPGTPLTLTCTVSGIDLSRYAMGWVRQAPGKGLEYIGIIGYGGNTNYANWAKGRFTISKTSSTTVDLKMTSPTTEDTATYFCARDNKSGGNNGYPYYGLDLWGPGTLVTVSS VL: AYDMTQTPASVEVPVGGTVTINCQASQSISSHLAWYQQKRGQPPKVLIYYASTLASGVSSRFKGSGSGTEYTLTISGVECADAATYFCHQSYSGSDVDNTFGGGTEVVVRG
8 | binds | binds | binds | binds | binds | binds | binds | binds | binds | binds | binds | R166.F2 (antibody, V domains shown, Rabbit monoclonal; also called clone R166.F2) VH: QSVEESGGRLVTPGTPLTLTCTASGFTISSHDMSWVRQAPGKGLEWIGYIYYGSGSTDYASWAEGRFTITRNTNENTVTLKMTSLTTEDTATYFCARGGYVGGGVDAFDPWGPGTVVTVSS VL: AYDMTQTPASVEVAVGGTVTIKCQASQSIYTYLSWYQQKPGQPPKLLIYRASTLASGVSSRFKGSGSGTDFTLTISGAQCADAATYYCQQGALSSNIHNTFGGGTEVVVKG
